{"source": "the nanobody polyreactivity screen of Harvey et al. (2022)"}
{"assay": "yeast display, Sf9 membrane polyspecificity reagent, FACS + sequencing; frameworks hold sequencing errors", "outline": "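Galactose induction of a Saccharomyces cerevisiae BJ5465 synthetic nanobody display library ran 36–48 hours. The cells were then stained for 1 hour at 4 °C with 10% biotinylated, detergent-solubilized Sf9 membrane reagent, pulled down on streptavidin microbeads and FACS-sorted into low and high (top ~1%) gates on expression and reagent-binding fluorescence. Labels for polyreactivity follow the gate of origin.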"}
{"sequence": "QVQLVESGGGLVQAGGRLRLSCAASGLTFGRYAMGWYRQAPGKERELVAVINGSGGNTYYADSVKGRFTISRDNAKNTVYLQMNSLKPEDTAVYYCAARRTVQYTLYYYPDYNYWGQGTQVTVSS", "polyreactivity (PSR sort gate)": "low polyreactivity"}
{"sequence": "QVQLVESGGGLVQAGGRLRLSCAASGLTYTRYTMGWYRPAPGKERELVAAITSSGGSTYYADSVKGRFTISRDNAKNTVFLQMNSLKPEDTAVYFCAARYPGTRGDGYWGQGTQVTVSS", "polyreactivity (PSR sort gate)": "high polyreactivity"}
{"sequence": "QVQLVESGGGLVQAGGRLRLSCAASGNIFYPNAMGWYRQAPGKERELVAAISSSGGSTYYADSVKGRFTISRDNAKNTVYLQMNSLKPEDTAVYYCAKDRSYAYYWWPYPTGYDYWGQGTQVTVSS", "polyreactivity (PSR sort gate)": "low polyreactivity"}
{"sequence": "QVQLVESGGGLVQAGGRLRLSCAASGRIFGWIAMGWSRQAPGKDRELVAAISADGNTYSADSVKGRFTISRDNAKNTVYVQKNSLKPEDTAVSYCAAESWSADFSWYDYWGQGTQVTVSS", "polyreactivity (PSR sort gate)": "high polyreactivity"}
{"sequence": "QVQLVESGGGLVQAGGRLRLSCAASGRIFPYYAMGWYRQAPGKEREFVAAITSSGGSTYYADSVKGRFTISRDNAKYTVYLQMNSLIPEDSAVYYCFAVRHFGLYAGRPYDYWGQGTQVTVSS", "polyreactivity (PSR sort gate)": "low polyreactivity"}
{"sequence": "QVQLVESGGGLVQAGGRLRLSCAASGRIFSQYSMGWYRQAPGKERELVAAISSRGGRTYYADSVKGRFTFSRDNAKNTVYLQMNSLKPEDTAVYYCAAYVYPWGRDYWGQGTQVTVSS", "polyreactivity (PSR sort gate)": "high polyreactivity"}
{"sequence": "QVQLVESGGGLVQAGGRLRLSCAASGRIFSYNAMGWYRQAPGKERELVAGITSGGRTYYADSVKGRFTISRDNAKNTVYLQMNSLKPEDTAVYYCAARYVPARTRYYYWGQGTQVTVSS", "polyreactivity (PSR sort gate)": "high polyreactivity"}
{"sequence": "QVQLVESGGGLVQAGGRLRLSCAASGRIFVHNAMGWYRQAPGKERELVAAISQNGGRTYYADSVKGRFTISRDNAKNTVYLQLNSLKPEDTAVYYCAAGQARAGLIGGYWGQGTQVTVSS", "polyreactivity (PSR sort gate)": "high polyreactivity"}
{"sequence": "QVQLVESGGGLVQAGGRLRLSCAASGRIFVIKSMGWYRQAPAKERELVAAISKRGGSTYYADSVKGRFTISRDNAKNTVYLQMNSLKPEDTAVYYCAARFKTTGYDYWGQGTQVTVSS", "polyreactivity (PSR sort gate)": "high polyreactivity"}
{"sequence": "QVQLVESGGGLVQAGGRLRLSCAASGRIFVYNAMGWYRQAPGKERELVAAINYRGTRTYYADSVKGRFTISRDNAKNTVYLQLNSLKPEDTAVYYCATYLVTGGGLNVRYDYWGQGTQVTVSS", "polyreactivity (PSR sort gate)": "high polyreactivity"}
{"sequence": "QVQLVESGGGLVQAGGRLRLSCAASGRTFAFYTMGWYRQAPGKEREFVAAISWSGGSTHYADSVKGRFTISRDNAKNTVYLQMNSLKPEDTAVYYCDAGPFYRFTDGRYKTLDYWGQGTQVTVSS", "polyreactivity (PSR sort gate)": "high polyreactivity"}
{"sequence": "QVQLVESGGGLVQAGGRLRLSCAASGRTFDTNAMGWYRQAPGKQRELVAVITARGGNTSYADSVKGRFTISRDYAKNTVYLLMNRLKPEDTAVYLCAARVYRAPWTYVEGNYWGQGTQVTVSS", "polyreactivity (PSR sort gate)": "low polyreactivity"}
{"sequence": "QVQLVESGGGLVQAGGRLRLSCAASGRTFDVYAMVWYRQAPGKERELVAAISKRGGSTYYADSVKGRFTISRDNAKNTVYLQMNSLKPEDTAVYYCNAYQTGWKGYDYWGQGTQVTVSS", "polyreactivity (PSR sort gate)": "high polyreactivity"}
{"sequence": "QVQLVESGGGLVQAGGRLRLSCAASGRTFGPNVMGWYRQAPGKERELVAAITSGGTTYYADSVKGRFTISRDNAKNTVYLQMTSLIPADTAVYYCAATFYPYQVHHYYYWGQGTQVTVSS", "polyreactivity (PSR sort gate)": "low polyreactivity"}
{"sequence": "QVQLVESGGGLVQAGGRLRLSCAASGRTFHYYALGWYRQATGKERELVAVIRYSGGRTYYADTVKGRFTISRDNAKNTVYLQMNSLKPEDTAVYYCNKGRWRTDPPVYLIAFDYWGQGTQVTVSS", "polyreactivity (PSR sort gate)": "low polyreactivity"}
{"sequence": "QVQLVESGGGLVQAGGRLRLSCAASGRTFLYYAMGWSRQAPGKERELVAAINWRGTRTYYADSVKGRFTISRDNAQNTVYLQMNSLKPEDTAVYYCNRQGPDFHLRAGQGNYWGQGTQVTVSS", "polyreactivity (PSR sort gate)": "high polyreactivity"}
{"sequence": "QVQLVESGGGLVQAGGRLRLSCAASGRTFRYYGMGWYRQAPWKERELVAAISWSGGSTYYADSVKGRFTISRDNAKNTVYLQMNSLTPEDTAVYYCNVDFHWQRFHHKSAAYDYWGQGTQVTVSS", "polyreactivity (PSR sort gate)": "high polyreactivity"}
{"sequence": "QVQLVESGGGLVQAGGRLRLSCAASGRTFSPYAMGWYREAPGKEREFVAASTWSAGRTYYADSVKGRFTISRDNAKNTVYLQMNSLKPEDTAVYYCNARDRSITYPRYDYWGQGTQVTVSS", "polyreactivity (PSR sort gate)": "high polyreactivity"}
{"sequence": "QVQLVESGGGLVQAGGRLRLSCAASGRTFYGFAMGWYRQAPGKERELVASISRDGSTNYADSVKGRFTISRDNAKNTVYLQMNSLKPEDNAVYYCAADIWYYRYPIYYYSYDYWGQGTQVTVSS", "polyreactivity (PSR sort gate)": "low polyreactivity"}
{"sequence": "QVQLVESGGGLVQAGGRLRLSCAASGRTFYGYAMGWYSPAPGKERELVAAITNGGRTYYADSVKGRFTISRDNAKNTVYLQMNSLKPEATAVYYCAAGPGRGRSTLGSYYWGQGTQVTVSS", "polyreactivity (PSR sort gate)": "high polyreactivity"}
{"sequence": "QVQLVESGGGLVQAGGRLRLSCAASGRTFYYYAMGWYRQAPGKERELVAAISWSGGRTYYADSVKGRFTISRDNAKNTVYLQMNSLKPEDTAVYYCNAETAAAQASYDRLDVLLDYWGQGTQVTVSS", "polyreactivity (PSR sort gate)": "low polyreactivity"}
{"sequence": "QVQLVESGGGLVQAGGRLRLSCAASGRTIANYAMGWYRQAPGKERELVAAISFSTVSTYYADSVKGRFTISRDNAKNTVYLQMNSLKPEDTAVYYCAARRLGYYRKVKELDYWGQGTQVTVSS", "polyreactivity (PSR sort gate)": "high polyreactivity"}
{"sequence": "QVQLVESGGGLVQAGGRLRLSCAASGSIFGVYAMGWYRQSPGKERELVATISRSGAITYYADSVKGRFTISRDNAKNTVYLQMNSLKPEDTAVYYCAADFFSRDWGQGTQVTVSS", "polyreactivity (PSR sort gate)": "low polyreactivity"}
{"sequence": "QVQLVESGGGLVQAGGRLRLSCAASGSIFITYDMGWYRQAPGKERELVATISTTGGTTYYADSVKGRFTISRDNAMNTVYLQMNSLKPEDTAVYYCAADWRYLYYALDYWGQGTQVTVSS", "polyreactivity (PSR sort gate)": "low polyreactivity"}
{"sequence": "QVQLVESGGGLVQAGGRLRLSCAASGSIFNSYAMGWYRQAPGTEREFVASIPKSGGTTYYADSVKGRFTISRDNAKNTVYLQMNSLKPEDTAVYYCAADWYRSSWTYNYWGQGTQVTLSS", "polyreactivity (PSR sort gate)": "low polyreactivity"}
{"sequence": "QVQLVESGGGLVQAGGRLRLSCAASGSIFPQYAMGWYRQAPGKERELVAAITWSGSRTRYADSVKGRFTISRDNAKNTVYLQMNSLKPEDTAVYYCAARVNGQTYYYWGQGTQVTVSS", "polyreactivity (PSR sort gate)": "high polyreactivity"}
{"sequence": "QVQLVESGGGLVQAGGRLRLSCAASGSIFVPNAMGGYRQAPGKERELVAAISGIGGSTSYADSEKGRFTISRDNAKNTVDLHMNSLQQEDTAVYYCARADKLHTRGWGRWGSGSYSWGQGTQVTVSS", "polyreactivity (PSR sort gate)": "low polyreactivity"}
{"sequence": "QVQLVESGGGLVQAGGRLRLSCAASGSIFYRSAMGWYRQAPGKERELVAAITRSDGRTYYADSVKGRFTISRDNAKNTVYLQMNSLKPEDTAVYYCNKDGAYKTAYKRWTLYDYWGQGTQVTVSS", "polyreactivity (PSR sort gate)": "low polyreactivity"}
{"sequence": "QVQLVESGGGLVQAGGRLRLSCAASGSISNRYAMGWYRQAPGKERELVAAISTGGGTTYYADSVKGRFTISRDNAKNTVYLQMNSLKPEDTAVYYCAADDWRYYRELDYWGQGTQVTVSS", "polyreactivity (PSR sort gate)": "low polyreactivity"}
{"sequence": "QVQLVESGGGLVQAGGRLRLSCAASGSNFGSNAMGWYRQAPGKESEFVAVITCRVGDTYYADSVKGRFTISRDNAKNTVYLQMYSLKPEDTAVYYCNVDWKVYGAPDYRIAWKYDYWGQGTQVTVSS", "polyreactivity (PSR sort gate)": "low polyreactivity"}
{"sequence": "QVQLVESGGGLVQAGGRLRLSCAASGSSFLGYVMGWSRQAPGKERELVAAITRSGGRTYYADSVKGRFTISRDNAKNTVYLQMTSLNPEDTAVYYCAALRGPSFHGYGYWGQGSQVTVSS", "polyreactivity (PSR sort gate)": "high polyreactivity"}
{"sequence": "QVQLVESGGGLVQAGGRLRLSCAASGSTCGPYTLGWYRQAPGTEREVVATISSGGSTYYADSVKWRFTISRDNAKNTVYLQMNSLKPEDTAVYFCNKDFFYLRTWRSVYEFEYWGQGTQVTVSS", "polyreactivity (PSR sort gate)": "low polyreactivity"}
{"sequence": "QVQLVESGGGLVQAGGRLRLSCAASGSTFEINVMGWYRQAPGKERELFAAITYSGGSTYYADSVKGRFTISRDNEKNTVYLQMNSLKPEDTAVYYWNADYILDAQYDYWGQGTQVTVSS", "polyreactivity (PSR sort gate)": "low polyreactivity"}
{"sequence": "QVQLVESGGGLVQAGGRLRLSCAASGSTFGFNAMGWSREAPGKERELVAASNDSGGDTYYADSVKGRFTSSRDNAKNTVYLQMNSLKPEDTAVYYCAADEPSSVYGILVELEYWGQGTQVTVST", "polyreactivity (PSR sort gate)": "high polyreactivity"}
{"sequence": "QVQLVESGGGLVQAGGRLRLSCAASGSTFGINAMGWYRQAPGKERELVAAITSTGRTYYADSVKGRFTISRDNAKNTVYLQMNSLKPEDTAVYYCAAVWRYKGLLLPSYYYWGQGTQVTVSS", "polyreactivity (PSR sort gate)": "high polyreactivity"}
{"sequence": "QVQLVESGGGLVQAGGRLRLSCAASGSTFHYYAMGWDRQAPGKERELVAAISQSGSGTYYADSVKGLFTISRDNAKKTVYLQMNSLKPEDTAVYYCAKDITGLSRYRRDYWGQGTQVTVSS", "polyreactivity (PSR sort gate)": "low polyreactivity"}
{"sequence": "QVQLVESGGGLVQAGGRLRLSCAASGSTFQFYAMGWYRQAPGKERELVAAITSSGSSTYYADSVKGRFTISRDNAKNTVYLQMNSLKPEDTAVYYCAARYYGYSVSYYYWGQGTQVTVSS", "polyreactivity (PSR sort gate)": "high polyreactivity"}
{"sequence": "QVQLVESGGGLVQAGGRLRLSCAASGSTFSFNAMGWYRQAPGKERELVAAIRVSSGTTYYADSVKGRFTISRDNAKNTVYLQMNSLKPEDTAVYYCAARYYYDWRQYGYWGQGTQVTVSS", "polyreactivity (PSR sort gate)": "high polyreactivity"}
{"sequence": "QVQLVESGGGLVQAGGRLRLSCAASGSTFWGYTMGWYRQAPGKERELVAAISTIGGSTYYADSVKGRFTISRDNAKNTVYLQMNSLKTEDTAVYYCAAYKGKHYKEGYWGQGTQVTVSS", "polyreactivity (PSR sort gate)": "low polyreactivity"}
{"sequence": "QVQLVESGGGLVQAGGRLRLSCAASGSTFWYYAMGWSRQAPGKEREFVAAITTGGSSTYYADSVKGRFTISRDNAKNTVYLQMNSLKPEDTAVYYCAARGWRSPYAYYYWGQGTQVTVSS", "polyreactivity (PSR sort gate)": "high polyreactivity"}
